The text below walks through data of patent US20070136889A1 (CROPDESIGN N V, published 2007).

For experiment [1], the target named is T1, GAL4 DNA-binding domain only (plasmid pGBT9) (UniProt P04386 1-147).
T1 construct: Negative control of the two-hybrid assay; also called empty pGBT9 vector
As to the kind of experiment: yeast two-hybrid, his3 reporter, control with empty pGBT9. As for the experimental part:
The need for this C-terminal domain for the interaction with CDC2At was assayed using the two-hybrid system. A gene encoding a truncated CKS1At protein was created by mutating the Tyr73 codon to a stop codon, thereby deleting the last 15 amino acids. Subsequently, this mutated gene was cloned in frame with the GAL4 activation domain, resulting in the pGADCDSQ plasmid. This vector was introduced into the HF7c yeast reporter strain, together with pGBTCDC2A or the empty pGBT9 vector. […] Therefore, this part of the CKS1At protein might be involved in the interaction with other proteins or may improve the stability of the CDK-CKS1At interaction.

The target in a further experiment is T2, CDC2aAt protein (Arabidopsis thaliana, UniProt P24100 1-294).
T2 construct: Endogenous protein in extracts of partially synchronized Arabidopsis cell suspensions
T2 sequence (P24100 whole entry): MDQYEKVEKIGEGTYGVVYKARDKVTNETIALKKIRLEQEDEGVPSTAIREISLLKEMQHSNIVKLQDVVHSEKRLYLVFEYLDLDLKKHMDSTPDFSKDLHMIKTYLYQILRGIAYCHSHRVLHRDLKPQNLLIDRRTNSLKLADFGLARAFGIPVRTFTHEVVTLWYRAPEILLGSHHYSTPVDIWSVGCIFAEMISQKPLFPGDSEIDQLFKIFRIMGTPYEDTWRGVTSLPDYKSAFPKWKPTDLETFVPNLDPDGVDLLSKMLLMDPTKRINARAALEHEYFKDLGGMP
Description: co-immunoprecipitation with the CKS1At antibody from extracts of G1/S cells, blot probed with the CDC2aAt antibody. As for the experimental part: Arabidopsis thaliana cell suspensions were partially synchronized by the addition of aphidicolin to freshly diluted cell suspension cells. After 24 hours the drug was washed away and cells were cultivated in new medium. Samples were collected at several time points and partly used for nuclei preparation, partly for protein extraction. […] The CKS1At containing complexes were precipitated with the use of a CKS1At specific antibody (see example 9 of this application). These complexes were resolved on a SDS PAGE gel and immunoblotted. The presence of CDC2aAt as a component of the immuno-precipitated complexes was verified by probing this blot with a CDC2aAt specific antibody. This antibody detected a specific band of the correct molecular size in the extracts of the G1/S cells.

For experiment [2], the target named is T3, GAL4 DNA-binding domain-CDC2bAt fusion protein encoded by pGBTCDC2B (Arabidopsis thaliana, UniProt P04386 1-147; P25859 1-309).
T3 construct: Two-hybrid bait
As to the kind of experiment: yeast two-hybrid, his3 reporter. As for the experimental part: The recently published structure of the human CDK2 protein in complex with the human CKS1At homologue CKSHs1 helped to identify the amino-acids in the CKS/SUC1 proteins important for interaction with CDKs. Based upon this information the E61 residue of CKS1At was mutated into Q61 by PCR. The consequences of this mutation upon the binding affinity for CDC2aAt and CDC2bAt were tested with the use of a two-hybrid system utilizing the his3 gene as reporter gene. The coding region of both the wild type CKS1At and the mutated CKS1At.Q61 gene was cloned in frame with the GAL4 activation domain in the pGAD424 vector, resulting in the pGADCKS and pGADCKS.Q61 respectively. These vectors were used to cotransform the HF7c yeast cells with pGBTCDC2A or pGBTCDC2B. The pGBTCDC2A and pGBTCDC2B vectors encode for a fusion protein between the GAL4 DNA-binding domain and CDC2aAt or CDC2bAt respectively. The transformants were plated on selective medium in the absence of histidine to test the interactions between CKS1At and CKS1At.Q61 with CDC2aAt and CDC2bAt. Transformants were also streaked on medium containing 10, 20, 40, 80 or 160 mM 3-amino-1,2,4-triazole (3-AT). 3-AT acts as a competitive inhibitor of the his3 gene product.

Experiment [3] has as its target T4, GAL4 DNA-binding domain-CDC2aAt fusion protein encoded by pGBTCDC2A (Arabidopsis thaliana, UniProt P04386 1-147; P24100 1-294).
T4 construct: Two-hybrid bait
Description: yeast two-hybrid, his3 reporter, control with GAL4 activation domain only.

B1: GAL4 activation domain fused to truncated CKS1At lacking the last 15 amino acids, encoded by pGADCKSQ (other, not shown: large carriers)
chain: MGQIQYSEKYFDDTFEYRHVVLPPEVAKLLPKNRLLSENEWRAIGVQQSRGWVHYAVHRPEPHIMLFRRPLN
notes: Tyr73 codon mutated to a stop codon, deleting the last 15 amino acids; also called pGADCDSQ; truncated CKS1At protein
For the molecule B1, the binding result in experiment [1] was “no binding”.

B2: CKS1At protein (CDK-associating subunit from Arabidopsis thaliana) (other)
chain: MGQIQYSEKYFDDTFEYRHVVLPPEVAKLLPKNRLLSENEWRAIGVQQSRGWVHYAVHRPEPHIMLFRRPLNYQQQQENQAQNMLVK
notes: also called wild type CKS1At
In the case of B2, the binding result with CDC2aAt protein is on record as “binds”.

B3: GAL4 activation domain-CKS1At.Q61 fusion protein encoded by pGADCKS.Q61 (other, not shown: large carriers; small tags and cut ends)
chain: MGQIQYSEKYFDDTFEYRHVVLPPEVAKLLPKNRLLSENEWRAIGVQQSRGWVHYAVHRPQPHIMLFRRPLNYQQQQENQAQNMLVK
notes: Two-hybrid prey with the E61 residue of CKS1At mutated into Q61; also called CKS1At mutant E61Q
In the case of B3, the binding result in experiment [2] is reported as “no binding”.

B4: GAL4 activation domain only (vector pGAD424) (other, UniProt P04386 768-881, looked up)
chain: ANFNQSGNIADSSLSFTFTNSSNGPNLITTQTNSQALSQPIASSNVHDNFMNNEITASKIDDGNNSKPLSPGWTDQTAYNAFGITTGMFNTTTMDDVYNYLFDDEDTPPNPKKE
notes: Negative control of the two-hybrid assay
Turning to B4, in experiment [3], the binding result is on record as “no binding”.
